The values below come from patent US20250152704A1 (PARAGON THERAPEUTICS, published 2025).

One assay has as its target FcRn-GFP. Description: cell-based or functional assay.
The target of assay [1] is T1, Recombinant in-house Human FcRn protein (human, UniProt P55899 24-297; P61769 21-119, limits assumed).
T1 construct: also called huFCRN; HuFcRn
Kind of assay: SPR, pH 6.

Assay [2] concerns the target T2, rat FcRn (rat, UniProt P13599 23-298; P07151 21-119, limits assumed).
T2 sequence (looked up) 1: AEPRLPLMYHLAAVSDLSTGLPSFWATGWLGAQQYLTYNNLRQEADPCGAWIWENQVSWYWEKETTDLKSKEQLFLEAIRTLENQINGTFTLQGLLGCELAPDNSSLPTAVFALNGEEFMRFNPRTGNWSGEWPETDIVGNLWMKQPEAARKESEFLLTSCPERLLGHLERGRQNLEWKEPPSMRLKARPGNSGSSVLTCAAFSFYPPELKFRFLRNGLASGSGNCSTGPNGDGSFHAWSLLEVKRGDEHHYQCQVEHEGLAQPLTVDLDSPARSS
T2 sequence (looked up) 2: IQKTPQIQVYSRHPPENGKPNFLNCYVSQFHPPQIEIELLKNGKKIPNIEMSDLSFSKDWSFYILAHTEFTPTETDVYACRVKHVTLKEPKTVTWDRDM
Kind of assay: SPR, pH 6. For orientation: Surface plasmon resonance follows binding to a sensor surface in real time, without labels.

The target in assay [3] is T3, cynomolgus monkey FcRn (cynomolgus monkey, UniProt Q8SPV9 24-297; Q8SPW0 21-119, limits assumed).
T3 construct: also called cynoFcRn
Kind of assay: SPR, pH 6.

Assay [4] concerns the target T4, mouse FcRn (mouse, UniProt Q61559 22-297; P01887 21-119, limits assumed).
T4 sequence (looked up) 1: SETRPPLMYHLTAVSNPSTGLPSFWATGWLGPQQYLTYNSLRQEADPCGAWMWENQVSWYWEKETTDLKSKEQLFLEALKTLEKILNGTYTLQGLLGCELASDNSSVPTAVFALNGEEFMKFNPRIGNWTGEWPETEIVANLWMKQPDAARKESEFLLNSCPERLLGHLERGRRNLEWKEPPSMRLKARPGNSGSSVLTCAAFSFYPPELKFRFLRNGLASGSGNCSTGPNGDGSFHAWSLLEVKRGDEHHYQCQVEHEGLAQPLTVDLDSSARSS
T4 sequence (looked up) 2: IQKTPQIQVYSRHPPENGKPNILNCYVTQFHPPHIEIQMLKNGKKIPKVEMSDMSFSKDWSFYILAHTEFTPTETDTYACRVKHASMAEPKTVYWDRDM
Kind of assay: SPR, pH 6.

In assay [5] the target is T1, Recombinant in-house Human FcRn protein. Description: competitive binding ELISA, pH 6.0, in triplicate; competitor IgG. A general note: In an ELISA, binding on a coated surface is turned into a signal by an enzyme label.
The target is the same in assay [6]. Kind of assay: SPR, pH 7.4.
Assay [7] deals with T2, rat FcRn. Description: SPR, pH 7.4.
The target in assay [8] is T3, cynomolgus monkey FcRn. Description: SPR, pH 7.4.
Assay [9] concerns the target T4, mouse FcRn. Kind of assay: SPR, pH 7.4.
Assay [10] addresses T1, Recombinant in-house Human FcRn protein. Kind of assay: competitive binding ELISA, pH 6.0; competitor Efgartigimod (Fc Fragment 1).

T1 sequence (P55899 24-297 limits assumed, chain 1 of 2): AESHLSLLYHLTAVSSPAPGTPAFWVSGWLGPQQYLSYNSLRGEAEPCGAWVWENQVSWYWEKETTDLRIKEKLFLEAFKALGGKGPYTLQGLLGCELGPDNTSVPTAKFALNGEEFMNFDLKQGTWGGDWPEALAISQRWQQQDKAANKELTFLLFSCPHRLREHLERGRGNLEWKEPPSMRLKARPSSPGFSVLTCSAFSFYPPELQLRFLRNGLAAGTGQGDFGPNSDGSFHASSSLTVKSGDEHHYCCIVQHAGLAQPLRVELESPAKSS
T1 sequence (P61769 21-119 limits assumed, chain 2 of 2): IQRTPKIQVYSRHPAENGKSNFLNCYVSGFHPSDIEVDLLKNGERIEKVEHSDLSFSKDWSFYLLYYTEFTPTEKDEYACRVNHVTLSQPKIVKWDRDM

B1: Fc Fusion Molecule 22 (Fc fusion)
chain 1: DKTHTCPPCPAPELLGGPSVFLFPPKPKDTLYITREPEVTCVVVDVSHEDPEVKFNWYVDGVEVHNAKTKPREEQYNSTYRVVSVLTVLHQDWLNGKEYKCKVSNKALPAPIEKTISKAKGQPREPQVCTLPPSRDELTKNQVSLSCAVKGFYPSDIAVEWESNGQPENNYKTTPPVLDSDGSFFLVSKLTVDKSRWQQGNVFSCSVMHEALKYHYTQKSLSLSPGGGGGSGGGGSGGGGSEVQLLESGGGLVQPGGSLRLSCAASGFTFRSFGMSWVRQAPGKGPEWVSSISGSGSDTLYADSVKGRFTISRDNSKNTLYLQMNSLRPEDTAVYYCTIGGSLSRSSQGTLVTVSS
chain 2: DKTHTCPPCPAPELLGGPSVFLFPPKPKDTLYITREPEVTCVVVDVSHEDPEVKFNWYVDGVEVHNAKTKPREEQYNSTYRVVSVLTVLHQDWLNGKEYKCKVSNKALPAPIEKTISKAKGQPREPQVYTLPPCRDELTKNQVSLWCLVKGFYPSDIAVEWESNGQPENNYKTTPPVLDSDGSFFLYSKLTVDKSRWQQGNVFSCSVMHEALKYHYTQKSLSLSPG
In the case of B1, the “Average (n = 3) Residual FcRn” value with FcRn-GFP was found to be 20.

B2: Fc Fusion Molecule 43 (Fc fusion)
chain 1: DKTHTCPPCPAPELLGGPSVFLFPPKPKDTLYITREPEVTCVVVDVSHEDPEVKFNWYVDGVEVHNAKTKPREEQYNSTYRVVSVLTVLHQDWLNGKEYKCKVSNKALPAPIEKTISKAKGQPREPQVCTLPPSRDELTKNQVSLSCAVKGFYPSDIAVEWESNGQPENNYKTTPPVLDSDGSFFLVSKLTVDKSRWQQGNVFSCSVMHEALKYHYTQKSLSLSPGGGGGSGGGGSGGGGSEVQLLESGGGLVQPGGSLRLSCAASGFTFRSAGMSWVRQAPGKGPEWVSSISGSGSDTLYADSVKGRFTISRDNSKNTLYLQMNSLRPEDTAVYYCTIGGSLSRSSQGTLVTVSS
chain 2: DKTHTCPPCPAPELLGGPSVFLFPPKPKDTLYITREPEVTCVVVDVSHEDPEVKFNWYVDGVEVHNAKTKPREEQYNSTYRVVSVLTVLHQDWLNGKEYKCKVSNKALPAPIEKTISKAKGQPREPQVYTLPPCRDELTKNQVSLWCLVKGFYPSDIAVEWESNGQPENNYKTTPPVLDSDGSFFLYSKLTVDKSRWQQGNVFSCSVMHEALKYHYTQKSLSLSPG
For B2, the “Average (n = 3) Residual FcRn” value with FcRn-GFP is 12.

B3: Fc Fusion Molecule 41 (Fc fusion)
chain 1: DKTHTCPPCPAPELLGGPSVFLFPPKPKDTLYITREPEVTCVVVDVSHEDPEVKFNWYVDGVEVHNAKTKPREEQYNSTYRVVSVLTVLHQDWLNGKEYKCKVSNKALPAPIEKTISKAKGQPREPQVCTLPPSRDELTKNQVSLSCAVKGFYPSDIAVEWESNGQPENNYKTTPPVLDSDGSFFLVSKLTVDKSRWQQGNVFSCSVMHEALKYHYTQKSLSLSPGGGGGSGGGGSGGGGSGGGGSGGGGSGGGGSEVQLLESGGGLVQPGGSLRLSCAASGFTFRSFGMSWVRQAPGKGPEWVSSISGSGSDTLYADSVKGRFTISRDNSKNTLYLQMNSLRPEDTAVYYCTIGGSLSRSSQGTLVTVSS
chain 2: DKTHTCPPCPAPELLGGPSVFLFPPKPKDTLYITREPEVTCVVVDVSHEDPEVKFNWYVDGVEVHNAKTKPREEQYNSTYRVVSVLTVLHQDWLNGKEYKCKVSNKALPAPIEKTISKAKGQPREPQVYTLPPCRDELTKNQVSLWCLVKGFYPSDIAVEWESNGQPENNYKTTPPVLDSDGSFFLYSKLTVDKSRWQQGNVFSCSVMHEALKYHYTQKSLSLSPG
B3: the “Average (n = 3) Residual FcRn” value with FcRn-GFP was 31.

B4: Fc Fusion Molecule 42 (Fc fusion)
chain 1: DKTHTCPPCPAPELLGGPSVFLFPPKPKDTLYITREPEVTCVVVDVSHEDPEVKFNWYVDGVEVHNAKTKPREEQYNSTYRVVSVLTVLHQDWLNGKEYKCKVSNKALPAPIEKTISKAKGQPREPQVCTLPPSRDELTKNQVSLSCAVKGFYPSDIAVEWESNGQPENNYKTTPPVLDSDGSFFLVSKLTVDKSRWQQGNVFSCSVMHEALKYHYTQKSLSLSPGGGGGSGGGGSGGGGSGGGGSGGGGSGGGGSGGGGSGGGGSEVQLLESGGGLVQPGGSLRLSCAASGFTFRSFGMSWVRQAPGKGPEWVSSISGSGSDTLYADSVKGRFTISRDNSKNTLYLQMNSLRPEDTAVYYCTIGGSLSRSSQGTLVTVSS
chain 2: DKTHTCPPCPAPELLGGPSVFLFPPKPKDTLYITREPEVTCVVVDVSHEDPEVKFNWYVDGVEVHNAKTKPREEQYNSTYRVVSVLTVLHQDWLNGKEYKCKVSNKALPAPIEKTISKAKGQPREPQVYTLPPCRDELTKNQVSLWCLVKGFYPSDIAVEWESNGQPENNYKTTPPVLDSDGSFFLYSKLTVDKSRWQQGNVFSCSVMHEALKYHYTQKSLSLSPG
B4: the “Average (n = 3) Residual FcRn” value in the assay with FcRn-GFP came to 48.

B5: Fc Fragment 13 (other)
chain: DKTHTCPPCPAPELLGGPSVFLFPPKPKDTLYITREPEVTCVVVDVSHEDPEVKFNWYVDGVEVHNAKTKPREEQYNSTYRVVSVLTVLHQDWLNGKEYKCKVSNKALPAPIEKTISKAKGQPREPQVYTLPPSRDELTKNQVSLTCLVKGFYPSDIAVEWESNGQPENNYKTTPPVLDSDGSFFLYSKLTVDKSRWQQGNVFSCSVMHEALRFHYTQKSLSLSPG
notes: Human IgG1 Fc fragment; substitutions already in the entry
B5: the Kd (usually the equilibrium constant for the complex coming apart) is 9.53 nM in [1]; 4.33 nM with rat FcRn [2]; 41.7 nM in the assay with cynomolgus monkey FcRn [3]; 0.2 nM in the assay with mouse FcRn [4]; 248 nM in [6]; 16.2 nM in the assay with rat FcRn [7]. Moreover, the Kd with cynomolgus monkey FcRn [8] was determined as 1370 nM; with mouse FcRn [9], 2.73 nM. Moreover, the IC50 (usually the concentration that inhibits the measured activity by half) was found to be 1.13 nM in [5] and 4.71 nM in [10].

B6: Fc Fragment 14 (other)
chain: DKTHTCPPCPAPELLGGPSVFLFPPKPKDTLYITREPEVTCVVVDVSHEDPEVKFNWYVDGVEVHNAKTKPREEQYNSTYRVVSVLTVLHQDWLNGKEYKCKVSNKALPAPIEKTISKAKGQPREPQVYTLPPSRDELTKNQVSLTCLVKGFYPSDIAVEWESNGQPENNYKTTPPVLDSDGSFFLYSKLTVDKSRWQQGNVFSCSVLHEALRFHYTQKSLSLSPG
notes: as for B5
B6: the Kd in assay [1] came to 8.26 nM; in the assay with rat FcRn [2], 3.94 nM; with cynomolgus monkey FcRn [3] it was 36.1 nM; with mouse FcRn [4], 0.288 nM; in assay [6] it was 249 nM; in the assay with rat FcRn [7], 12.4 nM. Moreover, the Kd with cynomolgus monkey FcRn [8] was 1600 nM; with mouse FcRn [9] it was 2.34 nM. Moreover, the IC50 came out at 2.09 nM in assay [5] and 3.85 nM in assay [10].

B7: Fc Fragment 12 (other)
chain: DKTHTCPPCPAPELLGGPSVFLFPPKPKDTLYITREPEVTCVVVDVSHEDPEVKFNWYVDGVEVHNAKTKPREEQYNSTYRVVSVLTVLHQDWLNGKEYKCKVSNKALPAPIEKTISKAKGQPREPQVYTLPPSRDELTKNQVSLTCLVKGFYPSDIAVEWESNGQPENNYKTTPPVLDSDGSFFLYSKLTVDKSRWQQGNVFSCSVMHEALRYHYTQKSLSLSPG
notes: as for B5
As for B7, the Kd in [1] came out at 7.15 nM; in the assay with rat FcRn [2] it was 5.41 nM; in the assay with cynomolgus monkey FcRn [3], 30.1 nM; with mouse FcRn [4] it was 0.194 nM; in assay [6], 166 nM; with rat FcRn [7] it was 17.3 nM. Moreover, the Kd amounted to 900 nM in the assay with cynomolgus monkey FcRn [8] and 2.83 nM with mouse FcRn [9]. For the same molecule, the IC50 in assay [5] was determined as 1.41 nM; in [10], 3.73 nM.
